Test: label from the status in PepcDB records
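Further: failed if final PepcDB status was selected cloned or expressed and not failed if soluble or beyond.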

Sequence	protein production
MKIRTIARASLLSAAIALAVTGCNSEPDMSQEDIQYISHVDQARFFQRQGELKASTIEARSAIDLQPNRTAPYFVIIHNLLTAGDAANAERQLDKLLENTNIEELGQSERNQAALIRAEARILQGKHQEALESLDQISSPSPDQQLQADNLKGRAWLTSGDFDKAEEAYQSAFDKHSNNVVAMVGLSRVATAKGDFDTAKERLEKAIEIDAEHEDVWLWRAQFAHAQQQWAEAEQAYIRALETIGQFDVMTFRKYQTISALITVLREQGKSAEAFVYEEILAKSGPGTIKSNLEAAASAYNDGDLNTAARYLQEVLNQVPNHQQSALMLGVIRYRQGRPEEAEKLLAPLADMENADEVRKLLAATRISMRDPAGAKSLLEDLEGSDADPQTLALVGIASLASGDDQSGRQLLEKSLELAPDNHNLRLRYAAYLTQTRDFANAIKQARQIPSDATEALQATILTSQAQALSGNSQTATDTLDTWLKANPDSMAALIARGNLASSLNNTQQAASYFERAHKQHPEEAAPLVALGNLAREQQNTEQAIAWYRQAVETNPNNLPAIQALAGVMKRDQLTGLMQEISSKHPEANGPRLILLESALINNDTLQADELTARLMEREREDQPSPAEPLVAAVYEGIATQMAQRENSERALEILSRGRTLFPENEAIALKVAAIEFSNGNATAARSALQDAKQHHPDSPAPYQVEASYYENQGEHQQAAELYQLALAKRQTAELAIAHARALSNAGRSQNSIEALQEANKQFPNNSSILLTLALQTQQAGQTDAAIEHYQQVLQLTPDNALALNNLAWLYYEAGNSEAASLAKRAYELVPENAAIADTYGWILFEAGEHEQSLAVLERAHSLAPDSQEIAMHLAEAYRATGRTDAAQQIMDKFSTGNNG	failed
MKISTKDLVLCALFAAISCVLAQISIQLPFSPVPFTMQVMAVYLAGIILGAKKGFISQLVYVVLGAIGAPVFANFTGGVGAILGPAGGFIIAFPFMALIVGCVADKCRTKAYIIISMVLASVVCYVFGALWLVLVTKISFALAIKTAVLPFILFDMLKIIIVSIIGINIRSRIISGGLA	failed
MKKAGILGLIITIIVLVPVGLGFNWYHSNYGTKTYYTQITTKGERKTGKDDSGKPYVYYHYSQPGYSDNGVKKELTFDSVLPRSLKMHAYLKVGYNDKRQQVINWEKVNQKDIPQAALNRIQKLEHHHHHH	not failed
MKKDVLIFVKGTQEYPINSLENSIEFFTEGTFYKKGESFYVTYKESELTGLEGTTTTFKIQPNHITLIRYGDVTSTLIFEPGKRHISTYITEEGVIMIGVYTKKMKVDLTENGGEVFVEYAIDLDSHMMSENDFLLKIKEAGVKNLEHHHHHH	not failed
MKKEAESLIEKEHGTNPKISRYWIQRYDLFSKYDQGIEMDEEGWYSVTPEEIAIKQAERCRGKVVIDCFSGVGAIDIDPMKIALAMNNAKVYGVANRIDFVTGDFMQLAPSLKGDVLFLSPPWGGPTYSKVESYKLDMLLPRDGGVERVDSLTHESHNMTRSMKLKKRSRLKKEVKSTIEKDNGRRHKITKYWIQRYDLFSRYDQGIEMDEEGWYSVTPEEIAIKQAQRYRGKVVIDCFSGVGGNTIQFAKVCSSVVAIDIDPVKVELAMNNAMVYGVANRVDFVIGDFIQLAPSLKGDVVFLSPPWGGPMYRDFESYNLDMLQPRDGYSLFQIAQSITPNIIMFLPRNVDLAQVEELAWLSSPPLNLEIEENFVGGRMKAVTAYFSCNAV	not failed
MKKFFIIGTDTEVGKTYISTKLIEVCEHQNIKSLCLKPVASGQSQFSELCEDVESILNAYKHKFTAAEINLISFNQAVAPHIIAAKTKVDISIENLKQFIEDKYNQDLDILFIEGAGGLLTPYSDHTTQLDLIKALQIPVLLVSAIKVGCINHTLLTINELNRHNIKLAGWIANCNDSNIKYIDEQINTIEELSGYKCSAKISRNADYLDFIDLSKILISPEENE	not failed
MKKFLFDLFPLILFFVAYRYADIYAATAVAITASIAQILWLRLTGKAIEGMHWINLSVIVIFGGATLWLHSDVFIKWKPTVLYWLFGGALLGARYLFGRNLVRRLLGKQIALPDPVWERLNLSWALFFVAAGAVNLYVAFSGHFTESQWVNFKVFGLMGLLVAFVIAQSLWLGKHLQASDTPDQDRNED	not failed
MKKFLFILSLFCVLSYAYELKLNANITALKLDKQNLYIGTDKGEILQYNIKDKSLKELLSLPKIKNYYGDDFAKIYNIDIFKHTLLILSEGDFGAKNLSFYKENLQIKKLEENSIIKAFFINENTYLLISIGSEIELIDKSLKNIKKFNFSHSSLNDAVLNEDKSRLIAGFESGEVELFDLKNWKMLKNYDKMHKDNIYQVDFKNNVILSCGTDRRIGVVKNEEQNFLQKDFLIYTCALSPSGEFAVYSDNEAGVSEVFSTSDFKPVKTFNNENLMSEFIIFLNNKDFIVSGFGDSIMFRSIDE	failed
MKKFLSFISFATIVSLVLSVFAKPYTEILRFKTTQQIAPRTYYEKYELLTDEGFVDINCIKLDLIDGGFDFDVLKSKVANTGDFVYNMVSSQIDKNPIAAINANFFYTNTKTDYNKIWPIGISVSGGKILSSPNNKQNTFPAFVYTTSNEILFDYINGLLYKLVNLDSGYEFKIAHVNKFTGDLTYPILFTGDYVQKTIGNKYKGIVELIIKDGIIKDIREEKQTVALDKNEYLLVATGNYAKNLKANFKVGDKVSLKIDLSIPLEKIKAAASGNTFLLKDGKIPSFTHEIAGRHPRSAIGIDKTGRYLYLVAVDGRNGKSIGLSQGELASFLQSIDVWTAINLDGGYSTQLIAKDNDGKFKAFYNIGETRKVFDSIAAFYKYRDDKIATFYIDCPDRVFAGEEYPIKVYAKDRFYNTITYDAVYLKVYQDAYEIDIKDGTFIPYKDGVVTISCVYEDVYQKAFAQKKISVYKPEILTTNKKQLYLLPGESARLRFYIKDKLGHFKEIDPRKVQAEKNPAFEFKDGSFIAKSNFRGFVTFSYKDLKCSIPVGIGETLQLLRSFDYLALSWPKGVSMFLSSKNKTQGKYSNKVYFSVSSTKGKSFKLNFKTPVDLTNINKISFDLCAKNVKVYLGFKMPNGTQKEVEIPQSKSDNFKSYSLNVESYKTLDYILLIPQKTQGYIWIDNLKGNVVNLPPVEAINQYVAKFDSKLAKSSVILLTKSFESLPSDTKKKVESNLGSYLKCYNLEKGNPPYEKNEKFNIVFLRTKSGSILDFSFYQWIRIKNLSAEKKPLIVVLDIPFESLKQNEKDILIRLLKSRKAPSMIICTTSDYTRVERYDTLYIGYASSNDLLAKSSTKSVNLACDVEKGYIYLARGY	failed
MKKIAVFADVQNLYYTVRQAYGCHFNYAALWADISKRGEIVHAFAYAIDRGDSKQQQFQQILRNLGFTVRLKPYIQRSDGSAKGEWDVGITIDIMDFAPQVDEVVLASGDGDFDMLLDRVISKHGVEAVAYGVPGLTANSLIRAASRYVPIEGALL	not failed
MKKIEIFDPAMCCPTGLCGTNINPELMRIAVVIESLKKQGIIVTRHNLRDEPQVYVSNKTVNDFLQKHGADALPITLVDGEIAVSQTYPTTKQMSEWTGVNLD	not failed
MKKIFYISLGFISLGIGIAGIVLPVVPTTPLVLLSAFCFSRSSEKFDIWLRQTKVYKYYAADFVESRSIAPARKKSMIWQIYILMGISIYFAPLMWLKLGLLIGTIVGTYVLFYVVPDKIDE	failed
MKKIGIIGAGGIARAHATALSTIKNAELVGVYDINQQNAESFVKTFGGKSFENVDELIDASEGLIVASPNFCHKEHALQALGKHKHVLCEKPMAISLEEASIMKDTAERLSVRASMGFNYRYLSYVNILKSLIINNELGNILSIKVHFKKNSALRRKKFTWRDDANSKKTSGSLGDLGIHLIDMVWYLFESDFITESVRAKMNTNVKTKEDKQVLVDDYAEIYGQLRNKVFVNIITSKCSVPEDCGFSIEVVGHKKEFKYHTGNPHVYKLIDGLNVVDCPVPQSLLNDPPNEFYGWADSFRSELINWIASTQNDWVEIPSFSDGFRSQEVLEMFFEKDS	failed
MKKINSAVLSIASNSMLIIFKLTAGITMNSISVLSEGVHSSIDLIASLIAFFSIKKSSLKEDDDHPFGHGKYENVSGFVEAILIMFAAIMIIYEAFNKLVSNSHVKNIDSGIYIMLISSAVNLFISIILLKSSKDTNSIALEADGMHLFTDFFTSLGVFLGLVLLKLTNIKIIDSITAFLVAILIIKTAVDLIKKSLRDLVDSSLDKDDINKIVKIVKKYPNIKEYHKLRTRRCGNTREIDIHIQIVGTDSLKETHDICSSIEDEIRRVFPDSCTVIHAEPYIEKFHKKSLT	failed
MKKITIISGHPNHESSISNKAILEYLESNVMESQLNIRKLEDLNTHFEFNVIQEQEALLQADTIIFQFPLFWYSFPALMKKWIDDVICYGFAFGGEKGAQLKDKQFIFSFTIGGQESAYGNEKEIALTIDELLKPLKQMLRYCQVKDINYVYSHNMLYIPDMYGSIEDINVRSECHAIKLLSMVN	failed
MKKKKYLKWWIAAVSAVFIVGAGIFVYTQYKAAQTSGDVATKDGTSASASDITWNGKTYSYNEHLSNFLFLGIDTKEKAETKTGQADAGQADALYLLSWNRLEGDITVISIPRDTMTQIETFGPGGKSLGKSKDHISLSYAYGDGGYESCELAENAVSELLYGLPIDGYCALNMDGLPVLTDSVGGVTVTVPNDSLAEVDPGYAKGAVVTLKGEDTEQFVRYRNTEISQSAIARMERQQEYIRAFGEALKKASADKALVTDLYKAIEPYMVTNMGKSRFVDLTESVSEGKKVNRWTIPGEGIQGKEYDEYVVDDDALYEKTVETFYVEKK	failed
MKKKKYVNSGTVTLLSFAVESECTFLDYIKGGTQINFTVAIDFTASNGNPSQSTSLHYMSPYQLNAYALALTAVGEIIQHYDSDKMFPALGFGAKLPPDGRVSHEFPLNGNQENPSCCGIDGILEAYHRSLRTVQLYGPTNFAPVVTHVARNAAAVQDGSQYSVLLIITDGVISDMAQTKEAIVNAAKLPMSIIIVGVGQAEFDAMVELDGDDVRISSRGKLAERDIVQFVPFRDYVDRTGNHVLSMARLARDVLAEIPDQLVSYMKAQGIRPRPPPAAPTHSPSQSPARTPPASPLHTHI	failed
MKKKNKLLFILGIIGPGLITVNAGNDAGGIATYATVGASYGYKMLWGLLLITFSLAIIQEMNARMAVVTGKGLSDLIRENYGVKWSLFAMCILFIANFGVCVGDFAGIAASLELFGISKYITVPIMAFLVWFVITKGSYEKTEKVFLAFTFVFFTYIITCIKVHPNWNVVMKATITPSLSFTKGYVLTLIGMIGTTITPYMQFYLQSSVVDKGLSVKEYKYEKIDVYLGAIWGDLVSFFIIVCTAVTLYKAGIKIDSAEQAAMALKPLAGNYATILFAAGLFGASVLATMVIPLSTTYAICEAFGFESGLDNSFSEAKTFYGIFTFMILFSAALVLVPKLSLVGIMLITQQIAGILSPVILIFMVLLINNKDIMGKYINNKLQNVIVYLTVAFIIILSLILFVSPIIDKLM	failed
MKKKYFLCVFAVILFFTGFLFGNSPVNAAETDTSNVTYNYIDISTLTETQKNSIIKGNPNETLTNDYENYSFVYQKNTSEPTTNTDNTSDNNKNQNGTLLKAGDVGPNSYLIILGFILFGSGIGLLTLKKRHARQLLVFLVVLGGSSLLVGSIVQATENSNLKTQESQTVAKGTKETKQPESMEGYTYVGYIHTSKNNTPPVVEKGTVTVNYQDEQGNSLATSETLEGDIDQPYQTATKNIEGYQLKEVNGNTTGTFTEKAQVVTYVYQKVPVATVTVKYLDQDGNKIHDPQTISGNIGEPYDASTDKYKLRIEGYTLDTTKLPNNANGTFTNQAIEVTYIYTKEAQDVKITIKFVDSNGDPFVLTDLTTYKNGDLVPIYPNLDQYHMRLNYNQEIYNQGEAVPDIVIPAKEGETYSLPERMTFNILDDQGKQIPYVISQNADLSSTGIERWENYLSIPTNREGTLTSEDVVVTYQILVYGVMIPEP	failed
